Reference: article PMC12727526, “Carbon-monoxide-driven bioethanol production operates through a tungsten-dependent catalyst” (Nature Chemical Biology, 2025)

Tests used:
[1] = target: T1, CaAFOR (AOR1) (Clostridium autoethanogenum, UniProt A0ABM5NPY3); details: pH 5.5 or 6.5, 37 °C; CO-driven, ferredoxin, CODH/ACS, S. cerevisiae ADH, 0.2 mM NADH; total sodium acetate; apparent
T1 construct: gene CAETHG_0092
T1 sequence (A0ABM5NPY3 1-607): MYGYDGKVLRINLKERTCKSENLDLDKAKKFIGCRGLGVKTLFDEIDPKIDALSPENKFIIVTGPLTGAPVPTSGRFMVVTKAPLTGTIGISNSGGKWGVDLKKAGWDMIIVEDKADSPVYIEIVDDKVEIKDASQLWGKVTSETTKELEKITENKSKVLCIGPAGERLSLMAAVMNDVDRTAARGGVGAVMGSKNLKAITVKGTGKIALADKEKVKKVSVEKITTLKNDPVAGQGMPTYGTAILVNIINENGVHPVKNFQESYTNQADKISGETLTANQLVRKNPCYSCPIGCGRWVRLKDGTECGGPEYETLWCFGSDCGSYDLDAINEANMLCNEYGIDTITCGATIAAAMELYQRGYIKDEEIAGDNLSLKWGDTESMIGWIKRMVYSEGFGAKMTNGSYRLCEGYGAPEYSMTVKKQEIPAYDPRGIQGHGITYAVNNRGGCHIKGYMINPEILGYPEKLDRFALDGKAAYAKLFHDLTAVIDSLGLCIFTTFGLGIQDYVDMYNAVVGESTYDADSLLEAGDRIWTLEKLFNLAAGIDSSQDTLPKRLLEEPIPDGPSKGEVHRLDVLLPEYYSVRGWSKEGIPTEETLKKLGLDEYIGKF

[2] = substrate: CC(=O)O; experiment: purified protein; details: pH 5.5, 37 °C, CO-driven, ferredoxin, CODH/ACS, S. cerevisiae ADH, 0.2 mM NADH, concentration of protonated acid calculated from total acetate with pKa 4.76, apparent, estimated
[3] = substrate: CC=O; experiment: purified protein; assay type: biochemical, Clostridium autoethanogenum; details: pH 8.0 (50 mM Tris-HCl), 37 °C, 5 mM methyl viologen, anaerobic, enzyme reactivated by preincubation with ferredoxin, apparent
[4] = substrate: CCC=O; experiment: purified protein; assay type: biochemical, Clostridium autoethanogenum; details: pH 8.0 (50 mM Tris-HCl), 37 °C, 5 mM methyl viologen, anaerobic, enzyme reactivated by preincubation with ferredoxin, apparent
[5] = substrate: CCCC=O; experiment: purified protein; assay type: biochemical, Clostridium autoethanogenum; details: pH 8.0 (50 mM Tris-HCl), 37 °C, 5 mM methyl viologen, anaerobic, enzyme reactivated by preincubation with ferredoxin, apparent

**Q.** CC(=O)O [acetate] was tested. Which “kM^app” value [1] did it give?
**A.** the high kM^app of CaAFOR for acetate

B1: CaAFOR (AOR1) (Clostridium autoethanogenum DSM 10061) (protein)
chain: T1 sequence (A0ABM5NPY3 1-607)
notes: native anaerobic purification from CO-grown cells; full length, no tag; monomer, expected mass 66,335 Da; holds [4Fe-4S] and tungstopterin
**Q.** Which results are given for B1?
**A.** Km [2]: 1630 µM; Km [3]: 54.40 ± 12.55 µM; kcat [3]: 4.42 ± 0.31 s⁻¹; Km [4]: 165.51 ± 50.50 µM; kcat [4]: 10.35 ± 1.06 s⁻¹; Km [5]: 53.47 ± 19.45 µM; kcat [5]: 4.27 ± 0.48 s⁻¹
